The assay deals with PD-L1蛋白 (expressed on CHO-K1-PD-L1 cells) (Homo sapiens (Human), UniProt Q9NZQ7 19-290). The experiment in a line: flow cytometry on CHO-K1-PD-L1 cells, Alexa-647 anti-human Fc secondary antibody.
PD-L1蛋白 (expressed on CHO-K1-PD-L1 cells), sequence (Q9NZQ7 19-290 limits assumed): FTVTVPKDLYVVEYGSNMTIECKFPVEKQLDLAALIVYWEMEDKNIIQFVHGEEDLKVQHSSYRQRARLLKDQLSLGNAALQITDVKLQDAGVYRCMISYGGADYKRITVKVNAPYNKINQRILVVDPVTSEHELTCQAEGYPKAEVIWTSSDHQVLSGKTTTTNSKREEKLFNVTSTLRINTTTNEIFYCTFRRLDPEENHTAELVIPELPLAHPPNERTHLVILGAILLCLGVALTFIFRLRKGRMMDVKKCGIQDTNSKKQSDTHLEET

B1: CD3×PD1mut双特异抗体 (bispecific antibody)
chain 1: EVQLLESGGGLVQPGGSLKLSCAASGFTFNTYAMNWVRQAPGKGLEWVARIRSKYNNYATYYADSVKDRFTISRDDSKNTAYLQMNNLKTEDTAVYYCVRHGNFGNSYVSWFAYWGQGTLVTVSSGGGGSGGGGSGGGGSELVVTQEPSLTVSPGGTVTLTCRSSTGAVTTSNYANWVQQKPGQAPRGLIGGTNKRAPGTPARFSGSLLGGKAALTLSGVQPEDEAEYYCALWYSNLWVFGGGTKLTVLGGGGSPKSCDKTHTCPPCPAPELLGGPSVFLFPPKPKDTLMISRTPEVTCVVVAVSHEDPEVKFNWYVDGVEVHNAKTKPREEQYASTYRVVSVLTVLHQDWLNGKEYKCKVSNKALPAPIEKTISKAKGQPREPQVYTLPPSREEMTKNQVSLWCLVKGFYPSDIAVEWESNGQPENNYKTTPPVLDSDGSFFLYSKLTVDKSRWQQGNVFSCSVMHEALHNHYTQKSLSLSPGK
chain 2: not shown
notes: Two-chain knob-into-hole heterodimer with human IgG1 Fc
On to B1, for which the binding result was “binds”.

B2: CD3×PD1双特异抗体 (bispecific antibody)
chain 1: EVQLLESGGGLVQPGGSLKLSCAASGFTFNTYAMNWVRQAPGKGLEWVARIRSKYNNYATYYADSVKDRFTISRDDSKNTAYLQMNNLKTEDTAVYYCVRHGNFGNSYVSWFAYWGQGTLVTVSSGGGGSGGGGSGGGGSELVVTQEPSLTVSPGGTVTLTCRSSTGAVTTSNYANWVQQKPGQAPRGLIGGTNKRAPGTPARFSGSLLGGKAALTLSGVQPEDEAEYYCALWYSNLWVFGGGTKLTVLGGGGSPKSCDKTHTCPPCPAPELLGGPSVFLFPPKPKDTLMISRTPEVTCVVVAVSHEDPEVKFNWYVDGVEVHNAKTKPREEQYASTYRVVSVLTVLHQDWLNGKEYKCKVSNKALPAPIEKTISKAKGQPREPQVYTLPPSREEMTKNQVSLWCLVKGFYPSDIAVEWESNGQPENNYKTTPPVLDSDGSFFLYSKLTVDKSRWQQGNVFSCSVMHEALHNHYTQKSLSLSPGK
chain 2: not shown
notes: as for B1
As to B2, the binding result is given as “binds”.
